# Patent US20230235013A1 (MABSOLVE, published 2023)
# T1: mouse FcRn (Sino Biological Cat. No. CT029-M08H) (mouse, UniProt Q61559 22-297; P01887 21-119)
# T1 construct: Bought protein, captured on an anti-histidine chip
# T1 sequence (looked up): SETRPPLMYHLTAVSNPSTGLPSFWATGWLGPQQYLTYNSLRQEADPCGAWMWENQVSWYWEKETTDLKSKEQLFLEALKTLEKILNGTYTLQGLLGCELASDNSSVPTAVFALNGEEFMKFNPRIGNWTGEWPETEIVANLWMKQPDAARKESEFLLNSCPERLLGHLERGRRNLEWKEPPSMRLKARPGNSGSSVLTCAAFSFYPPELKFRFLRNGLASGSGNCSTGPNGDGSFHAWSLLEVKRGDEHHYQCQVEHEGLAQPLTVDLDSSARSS
# T1 sequence (b2m, looked up): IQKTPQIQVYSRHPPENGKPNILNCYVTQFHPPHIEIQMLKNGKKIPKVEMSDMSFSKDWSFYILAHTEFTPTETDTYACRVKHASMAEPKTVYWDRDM
# Columns and labels:
# [1] = molecular target: T2, human FcRn (R&D Systems Cat. No. 8639-Fc) (human, UniProt P55899 24-297; P61769 21-119); test: SPR, FcRn captured; Expt 3
# [2] = molecular target: T2, human FcRn (R&D Systems Cat. No. …); test: SPR, FcRn captured; Mean
# [3] = molecular target: T3, Human C1q (Sigma Cat. No. 20476), HRP-labelled (human, UniProt P02745 23-245; P02746 28-253; P02747 29-245); test: ELISA, antibody coated, HRP-C1q; Expt 3, buffer alone 0.102
# T3 construct: Coupled to horse-radish peroxidase with Lightning-Link kit; also called HRP-labelled C1q
# [4] = molecular target: T2, human FcRn (R&D Systems Cat. No. …); test: SPR, FcRn captured; Expt 2
# [5] = molecular target: T3, Human C1q (Sigma Cat. No. 20476), …; test: ELISA, antibody coated, HRP-C1q; Expt 2, buffer alone 0.091
# [6] = molecular target: T4, C-terminus biotinylated human FcRn attached to Streptavidin-SmBiT (FcRn-SAv-SmBiT) (human, UniProt P55899 24-297; P61769 21-119, limits assumed, C-terminus biotinylated (AviTag), attached to Streptavidin-SmBiT); test: NanoBiT FcRn competition immunoassay, competitor Tracer-LgBiT human IgG, pH 6.0
# T4 construct: Kit reagent; also called hFcRn-AviTag
# [7] = molecular target: T2, human FcRn (R&D Systems Cat. No. …); test: SPR, FcRn captured; Expt 1
# [8] = molecular target: T3, Human C1q (Sigma Cat. No. 20476), …; test: ELISA, antibody coated, HRP-C1q; Expt 1, buffer alone 0.061
# [9] = molecular target: T2, human FcRn (R&D Systems Cat. No. …); test: SPR, FcRn captured via anti-His, pH 6.0;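 note: SPR binding signal relative to the reference cell, corrected by subtracting the response of a blank sample of running buffer alone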
# [10] = molecular target: T1, mouse FcRn (Sino Biological Cat. No. …); test: SPR, FcRn captured via anti-His, pH 6.0;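 note: SPR binding signal relative to the reference cell, corrected by subtracting the response of a blank sample of running buffer alone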
# [11] = molecular target: T5, cynomolgus monkey FcRn (Sino Biological Cat. No. CT031-C08H) (cynomolgus monkey, UniProt Q8SPV9 24-297; Q8SPW0 21-119); test: SPR, FcRn captured via anti-His, pH 6.0;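 note: SPR binding signal relative to the reference cell, corrected by subtracting the response of a blank sample of running buffer alone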
# T5 construct: Bought protein, captured on an anti-histidine chip; also called cynomolgus FcRn
Binder,Corrected and normalised response (% of wild-type reference) [1],Corrected and normalised response (% of wild-type reference) [2],Mean Absorbance [3],Corrected and normalised response (% of wild-type reference) [4],Mean Absorbance [5],Mean binding activity (% of wild-type reference) [6],Corrected and normalised response (% of wild-type reference) [7],Mean Absorbance [8],Corrected response (RU) [9],Corrected response (RU) [10],Corrected response (RU) [11]
"anti-CD20 (rituximab) human IgG1 L234A/L235A/P329G (LALAPG reference) (antibody, EU numbering; also called 2-66; copies: 2 + 2) heavy: not shown light: QIVLSQSPAILSASPGEKVTMTCRASSSVSYIHWFQQKPGSSPKPWIYATSNLASGVPVRFSGSGSGTSYSLTISRVEAEDAATYYCQQWTSNPPTFGGGTKLEIKRTVAAPSVFIFPPSDEQLKSGTASVVCLLNNFYPREAKVQWKVDNALQSGNSQESVTEQDSKDSTYSLSSTLTLSKADYEKHKVYACEVTHQGLSSPVTKSFNRGEC",93.6 % of wild-type reference,95.1 % of wild-type reference,0.103 absorbance (450 nm),96.4 % of wild-type reference,0.08 absorbance (450 nm),96.7 % of wild-type reference,95.1 % of wild-type reference,,,,
"anti-CD20 (rituximab) human IgG1 L234T/L235Q/G236R (antibody, EU numbering; also called 2-60; copies: 2 + 2) heavy: QVQLQQPGAELVKPGASVKMSCKASGYTFTSYNMHWVKQTPGRGLEWIGAIYPGNGDTSYNQKFKGKATLTADKSSSTAYMQLSSLTSEDSAVYYCARSTYYGGDWYFNVWGAGTTVTVSSASTKGPSVFPLAPSSKSTSGGTAALGCLVKDYFPEPVTVSWNSGALTSGVHTFPAVLQSSGLYSLSSVVTVPSSSLGTQTYICNVNHKPSNTKVDKKVEPKSCDKTHTCPPCPAPETQRGPSVFLFPPKPKDTLMISRTPEVTCVVVDVSHEDPEVKFNWYVDGVEVHNAKTKPREEQYNSTYRVVSVLTVLHQDWLNGKEYKCKVSNKALPAPIEKTISKAKGQPREPQVYTLPPSRDELTKNQVSLTCLVKGFYPSDIAVEWESNGQPENNYKTTPPVLDSDGSFFLYSKLTVDKSRWQQGNVFSCSVMHEALHNHYTQKSLSLSPGK light: QIVLSQSPAILSASPGEKVTMTCRASSSVSYIHWFQQKPGSSPKPWIYATSNLASGVPVRFSGSGSGTSYSLTISRVEAEDAATYYCQQWTSNPPTFGGGTKLEIKRTVAAPSVFIFPPSDEQLKSGTASVVCLLNNFYPREAKVQWKVDNALQSGNSQESVTEQDSKDSTYSLSSTLTLSKADYEKHKVYACEVTHQGLSSPVTKSFNRGEC",94.3 % of wild-type reference,95 % of wild-type reference,,96.1 % of wild-type reference,0.077 absorbance (450 nm),84.7 % of wild-type reference,94.6 % of wild-type reference,0.049 absorbance (450 nm),,,
"anti-CD20 (rituximab) human IgG1 L234Q/L235S/G236R (antibody, EU numbering; also called 2-33; 10.77; copies: 2 + 2) heavy: QVQLQQPGAELVKPGASVKMSCKASGYTFTSYNMHWVKQTPGRGLEWIGAIYPGNGDTSYNQKFKGKATLTADKSSSTAYMQLSSLTSEDSAVYYCARSTYYGGDWYFNVWGAGTTVTVSSASTKGPSVFPLAPSSKSTSGGTAALGCLVKDYFPEPVTVSWNSGALTSGVHTFPAVLQSSGLYSLSSVVTVPSSSLGTQTYICNVNHKPSNTKVDKKVEPKSCDKTHTCPPCPAPEQSRGPSVFLFPPKPKDTLMISRTPEVTCVVVDVSHEDPEVKFNWYVDGVEVHNAKTKPREEQYNSTYRVVSVLTVLHQDWLNGKEYKCKVSNKALPAPIEKTISKAKGQPREPQVYTLPPSRDELTKNQVSLTCLVKGFYPSDIAVEWESNGQPENNYKTTPPVLDSDGSFFLYSKLTVDKSRWQQGNVFSCSVMHEALHNHYTQKSLSLSPGK light: QIVLSQSPAILSASPGEKVTMTCRASSSVSYIHWFQQKPGSSPKPWIYATSNLASGVPVRFSGSGSGTSYSLTISRVEAEDAATYYCQQWTSNPPTFGGGTKLEIKRTVAAPSVFIFPPSDEQLKSGTASVVCLLNNFYPREAKVQWKVDNALQSGNSQESVTEQDSKDSTYSLSSTLTLSKADYEKHKVYACEVTHQGLSSPVTKSFNRGEC",98.2 % of wild-type reference,98.1 % of wild-type reference,0.083 absorbance (450 nm),97.8 % of wild-type reference,0.084 absorbance (450 nm),,98.4 % of wild-type reference,0.026 absorbance (450 nm),535 RU,166 RU,1230 RU
"anti-CD20 (rituximab) human IgG1 L234S/L235G/G236R (antibody, EU numbering; also called 2-47; 1-140; copies: 2 + 2) heavy: QVQLQQPGAELVKPGASVKMSCKASGYTFTSYNMHWVKQTPGRGLEWIGAIYPGNGDTSYNQKFKGKATLTADKSSSTAYMQLSSLTSEDSAVYYCARSTYYGGDWYFNVWGAGTTVTVSSASTKGPSVFPLAPSSKSTSGGTAALGCLVKDYFPEPVTVSWNSGALTSGVHTFPAVLQSSGLYSLSSVVTVPSSSLGTQTYICNVNHKPSNTKVDKKVEPKSCDKTHTCPPCPAPESGRGPSVFLFPPKPKDTLMISRTPEVTCVVVDVSHEDPEVKFNWYVDGVEVHNAKTKPREEQYNSTYRVVSVLTVLHQDWLNGKEYKCKVSNKALPAPIEKTISKAKGQPREPQVYTLPPSRDELTKNQVSLTCLVKGFYPSDIAVEWESNGQPENNYKTTPPVLDSDGSFFLYSKLTVDKSRWQQGNVFSCSVMHEALHNHYTQKSLSLSPGK light: QIVLSQSPAILSASPGEKVTMTCRASSSVSYIHWFQQKPGSSPKPWIYATSNLASGVPVRFSGSGSGTSYSLTISRVEAEDAATYYCQQWTSNPPTFGGGTKLEIKRTVAAPSVFIFPPSDEQLKSGTASVVCLLNNFYPREAKVQWKVDNALQSGNSQESVTEQDSKDSTYSLSSTLTLSKADYEKHKVYACEVTHQGLSSPVTKSFNRGEC",100 % of wild-type reference,100 % of wild-type reference,0.087 absorbance (450 nm),101 % of wild-type reference,0.074 absorbance (450 nm),,100 % of wild-type reference,,,,
"anti-CD20 (rituximab) human IgG1 L234A/L235S/G236R (antibody, EU numbering; also called 2-4; 1-14; copies: 2 + 2) heavy: not shown light: QIVLSQSPAILSASPGEKVTMTCRASSSVSYIHWFQQKPGSSPKPWIYATSNLASGVPVRFSGSGSGTSYSLTISRVEAEDAATYYCQQWTSNPPTFGGGTKLEIKRTVAAPSVFIFPPSDEQLKSGTASVVCLLNNFYPREAKVQWKVDNALQSGNSQESVTEQDSKDSTYSLSSTLTLSKADYEKHKVYACEVTHQGLSSPVTKSFNRGEC",95.8 % of wild-type reference,96 % of wild-type reference,0.095 absorbance (450 nm),95.7 % of wild-type reference,0.1 absorbance (450 nm),,96.5 % of wild-type reference,0.041 absorbance (450 nm),539 RU,146 RU,1260 RU
"anti-CD20 (rituximab) human IgG1 L234T/L235S/G236R (antibody, EU numbering; also called 2-62; copies: 2 + 2) heavy: QVQLQQPGAELVKPGASVKMSCKASGYTFTSYNMHWVKQTPGRGLEWIGAIYPGNGDTSYNQKFKGKATLTADKSSSTAYMQLSSLTSEDSAVYYCARSTYYGGDWYFNVWGAGTTVTVSSASTKGPSVFPLAPSSKSTSGGTAALGCLVKDYFPEPVTVSWNSGALTSGVHTFPAVLQSSGLYSLSSVVTVPSSSLGTQTYICNVNHKPSNTKVDKKVEPKSCDKTHTCPPCPAPETSRGPSVFLFPPKPKDTLMISRTPEVTCVVVDVSHEDPEVKFNWYVDGVEVHNAKTKPREEQYNSTYRVVSVLTVLHQDWLNGKEYKCKVSNKALPAPIEKTISKAKGQPREPQVYTLPPSRDELTKNQVSLTCLVKGFYPSDIAVEWESNGQPENNYKTTPPVLDSDGSFFLYSKLTVDKSRWQQGNVFSCSVMHEALHNHYTQKSLSLSPGK light: QIVLSQSPAILSASPGEKVTMTCRASSSVSYIHWFQQKPGSSPKPWIYATSNLASGVPVRFSGSGSGTSYSLTISRVEAEDAATYYCQQWTSNPPTFGGGTKLEIKRTVAAPSVFIFPPSDEQLKSGTASVVCLLNNFYPREAKVQWKVDNALQSGNSQESVTEQDSKDSTYSLSSTLTLSKADYEKHKVYACEVTHQGLSSPVTKSFNRGEC",,,0.119 absorbance (450 nm),,0.067 absorbance (450 nm),,,0.037 absorbance (450 nm),,,
